Laboratory results from patent US20160122426A1 (DONG A SOCIO, published 2016).

How the values were obtained:
[1] = target: T1, mouse VEGF (mouse, UniProt Q00731-2 27-190); assay: ELISA and BIAcore
T1 construct: Bought recombinant protein; also called mVEGF-A; mouse VEGF-A
T1 sequence (looked up): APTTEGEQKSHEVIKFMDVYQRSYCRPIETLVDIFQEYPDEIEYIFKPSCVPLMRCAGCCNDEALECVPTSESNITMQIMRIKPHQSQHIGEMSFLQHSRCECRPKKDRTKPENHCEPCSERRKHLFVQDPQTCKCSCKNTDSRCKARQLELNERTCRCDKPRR

[2] = target: T2, human VEGF (human, UniProt P15692-4 27-191); assay: ELISA and BIAcore
T2 construct: Bought recombinant protein; also called hVEGF; human VEGF-A

[3] = target: T2, human VEGF; assay: SPR (BIAcore X100), VEGF on CM5 chip, IgG injected, 1:1 Langmuir
From the text: Meanwhile, to measure the affinity, human VEGF and mouse VEGF were coupled to carboxymethylated dextran biosensor chips (CM5, GE) according to the manufacturer's instructions.
The association and dissociation rates were expressed by the association and dissociation sensorgram, and calculated using a simple 1:1 Langmuir binding model (BIAcore X100 evaluation software, ver. 2.0).

Binder | fold affinity over mother clone F [1] [times] | fold affinity over mother clone F [2] [times] | Kd [3] [pM] | koff [3] [s⁻¹] | kon [3] [M⁻¹ s⁻¹]
HF2-2 (antibody, V domains shown) VH: EVQLVESGGGLVQPGGSLRLSCAASRFNMRSHGMQWVRQAPGKGLEYVAGISSDGSWERVGAAVEGRFTISRDDSKNTAYLQMNSLRAEDTAVYYCARDFSTGYGADSIDAWGQGTLVTVSS VL: DIQMTQSPSSLSASVGDRVTITCSGGSDSAYGYGWYQQKPGKAPKTLIYWDDKRPSGVPSRFSGSRSGTDFTLTISSLQPEDFATYYCGAWEYSGGVGIFGQGTKVEIK | ≥ 10 | ≥ 10 | < 1 | < 1e-06 | 1.1e+06
HF2-24 (antibody, V domains shown) VH: EVQLVESGGGLVQPGGSLRLSCAASRFNMRSHGMQWVRQAPGKGLEYVAGISSDGSWVKVAAAVEGRFTISRDDSKNTAYLQMNSLRAEDTAVYYCARDFSTGYGADSIDAWGQGTLVTVSS VL: DIQMTQSPSSLSASVGDRVTITCSGGSQESLGYGWYQQKPGKAPKTLIYWDDKRPSGVPSRFSGSRSGTDFTLTISSLQPEDFATYYCGAWEYSGGVGIFGQGTKVEIK | ≥ 10 | ≥ 10 | – | – | –
HF2-6 (antibody, V domains shown) VH: EVQLVESGGGLVQPGGSLRLSCAASRFLLRSHGMQWVRQAPGKGLEYVAGISSDGSWFRVAAAVEGRFTISRDDSKNTAYLQMNSLRAEDTAVYYCARDFSTGYGADSIDAWGQGTLVTVSS VL: DIQMTQSPSSLSASVGDRVTITCSGGSMEPLGYGWYQQKPGKAPKTLIYWDDKRPSGVPSRFSGSRSGTDFTLTISSLQPEDFATYYCGAWEYSGGVGIFGQGTKVEIK | ≥ 10 | ≥ 10 | < 1 | < 1e-06 | 1.6e+06
HF2-22 (antibody, V domains shown) VH: EVQLVESGGGLVQPGGSLRLSCAASGFRIRSHGMQWVRQAPGKGLEYVAGISSDGSWFRVAAAVEGRFTISRDDSKNTAYLQMNSLRAEDTAVYYCARDFSTGYGADSIDAWGQGTLVTVSS VL: DIQMTQSPSSLSASVGDRVTITCSGGSTAGVGYGWYQQKPGKAPKTLIYWDDKRPSGVPSRFSGSRSGTDFTLTISSLQPEDFATYYCGAWEYSGGVGIFGQGTKVEIK | ≥ 10 | ≥ 10 | – | – | –
HF2-21 (antibody, V domains shown) VH: EVQLVESGGGLVQPGGSLRLSCAASFQYFRSHGMQWVRQAPGKGLEYVAGISSDGSWYRVQAAVEGRFTISRDDSKNTAYLQMNSLRAEDTAVYYCARDFSTGYGADSIDAWGQGTLVTVSS VL: DIQMTQSPSSLSASVGDRVTITCSGGSMEPLGYGWYQQKPGKAPKTLIYWDDKRPSGVPSRFSGSRSGTDFTLTISSLQPEDFATYYCGAWEYSGGVGIFGQGTKVEIK | ≥ 10 | ≥ 10 | – | – | –
HF2-23 (antibody, V domains shown) VH: EVQLVESGGGLVQPGGSLRLSCAASGFRIRSHGMQWVRQAPGKGLEYVAGISSDGSWFSSAAAVEGRFTISRDDSKNTAYLQMNSLRAEDTAVYYCARDFSTGYGADSIDAWGQGTLVTVSS VL: DIQMTQSPSSLSASVGDRVTITCSGGSDLLLGYGWYQQKPGKAPKTLIYWDDKRPSGVPSRFSGSRSGTDFTLTISSLQPEDFATYYCGAWEYSGGVGIFGQGTKVEIK | ≥ 10 | ≥ 10 | – | – | –
HF2-12 (antibody, V domains shown) VH: EVQLVESGGGLVQPGGSLRLSCAASYSEVRSHGMQWVRQAPGKGLEYVAGISSDGSWFRVAAAVEGRFTISRDDSKNTAYLQMNSLRAEDTAVYYCARDFSTGYGADSIDAWGQGTLVTVSS VL: DIQMTQSPSSLSASVGDRVTITCSGGSMEPLGYGWYQQKPGKAPKTLIYWDDKRPSGVPSRFSGSRSGTDFTLTISSLQPEDFATYYCGAWEYSGGVGIFGQGTKVEIK | ≥ 10 | ≥ 10 | – | – | –
HF2-3 (antibody, V domains shown, also called HF-3) VH: EVQLVESGGGLVQPGGSLRLSCAASHFNMRSHGMQWVRQAPGKGLEYVAGISSDGSWFRVAAAVEGRFTISRDDSKNTAYLQMNSLRAEDTAVYYCARDFSTGYGADSIDAWGQGTLVTVSS VL: DIQMTQSPSSLSASVGDRVTITCSGGSDSAYGYGWYQQKPGKAPKTLIYWDDKRPSGAPSRFSGSRSGTDFTLTISSLQPEDFATYYCGAWEYSGGVGIFGQGTKVEIK | ≥ 10 | ≥ 10 | < 1 | < 1e-06 | 1.3e+06
HF2-16 (antibody, V domains shown) VH: EVQLVESGGGLVQPGGSLRLSCAASGFRIRSHGMQWVRQAPGKGLEYVAGISSDGSWVKVAAAVEGRFTISRDDSKNTAYLQMNSLRAEDTAVYYCARDFSTGYGADSIDAWGQGTLVTVSS VL: DIQMTQSPSSLSASVGDRVTITCSGGSIEPLGYGWYQQKPGKAPKTLIYWDDKRPSGVPSRFSGSRSGTDFTLTISSLQPEDFATYYCGAWEYSGGVGIFGQGTKVEIK | ≥ 10 | ≥ 10 | – | – | –
HF2-17 (antibody, V domains shown) VH: EVQLVESGGGLVQPGGSLRLSCAASGFMIRSHGMQWVRQAPGKGLEYVAGISSDGSWRRHSAAVEGRFTISRDDSKNTAYLQMNSLRAEDTAVYYCARDFSTGYGADSIDAWGQGTLVTVSS VL: DIQMTQSPSSLSASVGDRVTITCSGGSIEPLGYGWYQQKPGKAPKTLIYWDDKRPSGVPSRFSGSRSGTDFTLTISSLQPEDFATYYCGAWEYSGGVGIFGQGTKVEIK | ≥ 10 | ≥ 10 | – | – | –
HF2-20 (antibody, V domains shown) VH: EVQLVESGGGLVQPGGSLRLSCAASYMEYRSHGMQWVRQAPGKGLEYVAGISSDGSWSRVDAAVEGRFTISRDDSKNTAYLQMNSLRAEDTAVYYCARDFSTGYGADSIDAWGQGTLVTVSS VL: DIQMTQSPSSLSASVGDRVTITCSGGSDSAYGYGWYQQKPGKAPKTLIYWDDKRPSGVPSRFSGSRSGTDFTLTISSLQPEDFATYYCGAWEYSGGVGIFGQGTKVEIK | ≥ 10 | ≥ 10 | – | – | –
HF2-15 (antibody, V domains shown) VH: EVQLVESGGGLVQPGGSLRLSCAASGFVVRSHGMQWVRQAPGKGLEYVAGISSDGSWKATAAAVEGRFTISRDDSKNTAYLQMNSLRAEDTAVYYCARDFSTGYGADSIDAWGQGTLVTVSS VL: DIQMTQSPSSLSASVGDRVTITCSGGSQESLGYGWYQQKPGKAPKTLIYWDDKRPSGVPSRFSGSRSGTDFTLTISSLQPEDFATYYCGAWEYSGGVGIFGQGTKVEIK | ≥ 10 | ≥ 10 | – | – | –
HF2-18 (antibody, V domains shown) VH: EVQLVESGGGLVQPGGSLRLSCAASYWAFRSHGMQWVRQAPGKGLEYVAGISSDGSWFSSAAAVEGRFTISRDDSKNTAYLQMNSLRAEDTAVYYCARDFSTGYGADSIDAWGQGTLVTVSS VL: DIQMTQSPSSLSASVGDRVTITCSGGSIEPLGYGWYQQKPGKAPKTLIYWDDKRPSGVPSRFSGSRSGTDFTLTISSLQPEDFATYYCGAWEYSGGVGIFGQGTKVEIK | ≥ 10 | ≥ 10 | – | – | –
